In the nanobody polyreactivity screen of Harvey et al. (2022):

Assay: yeast display, Sf9 membrane polyspecificity reagent, FACS + sequencing; frameworks hold sequencing errors
In short: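 Synthetic nanobody libraries on Saccharomyces cerevisiae BJ5465 were galactose-induced for 36–48 hours, stained 1 hour at 4 °C with 10% biotinylated, detergent-solubilized Sf9 membrane reagent and enriched on streptavidin microbeads. FACS then separated cells into low and high (top ~1%) gates by anti-HA (expression) and streptavidin (reagent binding) fluorescence. Genes were colony-PCR amplified, MiSeq 2 × 250 sequenced and CDR-length filtered. A clone's polyreactivity label is that of its gate of origin.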

Sequence	polyreactivity (PSR sort gate)
QVQLVESGGGLVQAGGSLRISCAASGSIFYNYAMGWYRQAPGKERELVAAINRSGGITFYADSVKGRFTISRDNAKNTVYLQMNSLKPEDTAVYYCAADRSFGHHYWYTGKRYDYWGQGTQVTVSS	low polyreactivity
QVQLVESGGGLVQAGGSLRISCAASGSILDGNAMGLYRQAPGKERELFAGISESDGSTNYADSVKGRFTISRDNAKNTVYLQMNSLNPEDTAVYYCAADIWTCGDIPYDYWGQGTQVTVSS	low polyreactivity
QVQLVESGGGLVQAGGSLRISCAASGSNLSPYVMGWYRQAPGKERELVSTISRSGGRTYYADSEKGRFTISRDNAKNTFNLQMNSLKPEDTAVYYCAREDWGSYSDMDSWGQGTQVTVSS	low polyreactivity
QVQLVESGGGLVQAGGSLRISCAASGSTFDGYAMGWYRQAPGKERELVAAITRGGSTNYADSVKGRFTISRDNAKNTVYLQMNSLKPEDTAVYYCNARLWKRYPYDGYGYWGQGTQVTVSS	high polyreactivity
QVQLVESGGGLVQAGGSLRISCAASGSTFDYDDMRWYRQAPGKERELVASITSGGITDYADSVKGRFTISRDNAKNTVYLQMNSLTPEDTAVYYCNAARQYSRSAEGYLVWGYSWGQGTQVTVSS	low polyreactivity
QVQLVESGGGLVQAGGSLRISCAASGSTFEDNAMGWYRQAPGKERELVAAITSGGNTYYADSVKGRFTISRDNSKNTVYLQMNSLKPEDTAVYYCNAVPFYYDFDYWGQGTQVTVSS	low polyreactivity
QVQLVESGGGLVQAGGSLRISCAASGSTFGPYAMGWYRQAPGKERELVAAIRWSDGSTYYADSVKGRFTISRDNANNTVYLQMNTLKPEDTAVSYCAVDGYGYNDDYWGQGTQVTVSS	high polyreactivity
QVQLVESGGGLVQAGGSLRISCAASGSTFNINAMGWYRQAPGKERELVAAIRYRGGSTNYADSVKGRFTISRDNAKNNVYLQMNSLKPEDTAVYYCAATYSRHTNGYSKYCYWGQGTQVTVSS	high polyreactivity
QVQLVESGGGLVQAGGSLRISCAASGSTFPYNAMGWYRQAPGKERELVATIDRGSTTNYADSVKGRFTISRDNAKNTVYLQMNSLKPEDTAVYYCAADANGYYNYDYWGQGTQVTVSS	low polyreactivity
QVQLVESGGGLVQAGGSLRISCAASGSTFQGYAMGWYREAPGKERELVAAISGRSGSTYYADSVKGRFTISRDNAKNTVFLTMNSLKPVDSAVYYCNARFNRSRRTYDYWVQGTQVTVSS	high polyreactivity
QVQLVESGGGLVQAGGSLRISCAASGSTFQLYSMGWSRQAPGKEREFVAAITYSGGGSTSYADSVKGRFTISRDNAKNTVYLQMNSLKPEDTAVFYCAARDFETDGYTLVAYNYWGQGSQVTVSS	low polyreactivity
QVQLVESGGGLVQAGGSLRISCAASGSTFVRNAMGWYRQAHGKERELVAAISVDGSSTYDADSVKGRFTISRDNAKNTVYLQMNSLKREDTAVYYCNADWEYRDFYDITYDYWGQGTQVTVSS	low polyreactivity
QVQLVESGGGLVQAGGSLRISCAASGSTFWYYAMGRYREAPGKERELVAAIRRGGSTYYADSVKGRFTISRDNAKNTVYLQLNSLKPDDTAGYYCAAERPYKTFGYGDWGQGTQVTVSS	high polyreactivity
QVQLVESGGGLVQAGGSLRISCAASGSTFYIYAMGWYRPAPGKERELVAAIRRSGGSTYYADSVKGRFTISRDNAKNTVYLQMNSLKPEDTAVYYCATRYLWRPRPYDYWGQGTQVTVSS	high polyreactivity
QVQLVESGGGLVQAGGSLRISCAASGSTLRRYAMGWYRQAPGKERELVAAISGSGDSTYYADSVKGRFTISRDNAKNTVYLQMNSLKPEDTAVYYCNAVYAFNGYDYWGQGTQVTVSS	low polyreactivity
QVQLVESGGGLVQAGGSLRISCAASGSTVHYMAWYRQAPGKEREMVAGISWSGGSTYYADSVKGRFTISRDNAKNTVYLQMNSLKPEETAVYYCAADHFNYTSGRDYWGQGTQVTVSS	low polyreactivity
QVQLVESGGGLVQAGGSLRISCAASGYIFRFNAMGCYRPAPGKERELVAVITSGARTYYADSVKGRFTISRDNAKNTVYLQMNSLKPEDNAVYYCNAGARRYLYDYWGQGTQVTVSS	low polyreactivity
QVQLVESGGGLVQAGGSLRISCAASGYTFKNNTMGWYRQAPGKERELVAAISVSGGSTYYADSVKGRFTISRDNAKKTVYLQMNSLKPEDTAVYYCTALREVPLFLVYIGGCYWGQGTQVTVSS	low polyreactivity
QVQLVESGGGLVQAGGSLRISCAASGYTFYSNAMGWYRQAPGKERELVASIRSRGRSTYYADSVKGRFTISRDNAKYSVYLQMNSLNPEDTAVYYCAALRNKPAVYAYDYWGQGTQVTVSS	low polyreactivity
QVQLVESGGGLVQAGGSLRISCAPSGGILYHYVMGWYRQAPGTERELVAAISRAGRTYYADSVKGRFTISRDNAKNTVYLQMNSLKPEDTAVYYCNAYFRYFYWGLGTQVTVSS	high polyreactivity
QVQLVESGGGLVQAGGSLRISCAPSGIIFEYYALGCSRQAPGKEREVVAAIFSGGSTYYADSVKGRFTISRDNAKNTVYLLMNSLKAEDNAVYYCAAEYLAWGQGTQVTVSS	high polyreactivity
